B1: PSPH4058: OYE protein from Pseudomonas syringae phaseolicola 1448A (protein)
chain: MTTIFDPITIGDLQLPNRIIMAPLTRCRADEGRVPNALMSEYYVQRASAGLILTEATSVTPMGVGYPDTPGIWSNDQVRGWSNITKAVHTAGGRIVLQLWHVGRISHPAYLNGETPVAPSAIAAEGHVSLMRPITPLPTPRALELAEIGDIVEAYRVGAENAKAAGFDGVEVHGANGYLLEQFLLTGSNQRTDEYGGSVENRARLLLEVTDAVIEVWGAGRVGVHLSPRFDMHDMSDANRTETFSYVAKELGKRGIAFICARERDAEDSLGPQLKKDFGGVYIANEKFTKDTANTWLAEGKADAIAFGVPYIANPDLPERLASDAPLNEAHPETFYGKGPVGYIDYPRL
B2: RHA03305: OYE protein from Rhodococcus sp. RHA1 (protein)
chain: MQHTSTTASTLFSPLKLGSTELANRVALAPMTRVSGDEDGSANESIASYYEVFAKGGFGLLITEGIYPDTKYSQGYLNQPGLATAQHADSWKPVVERVHTAGARIFAQLMHAGAQSQGNRYVTETIAPSTTPPLGEQLGFYGGTGPYATPRALSLRDIDDVCAGFAQAAQHAVAAGFDGVEIHGANGYLLDQFLTDYMNQRDDEYGGSLANRLKIYREVIAAVRQVVGSKVTVGVRISQSKVSDYNHRWAGGESDAAEIFQGLAETGVDYIHTTEFDATAPAFADSGTTLAAFATKYSGLPVIANGQLGDPAAADALIENGSAQVISLGKPALANRDWPQRALDAKPIQSDVDPSVFSPMATVKSWELSA
B3: SAV1511: OYE protein from Streptomyces avermitilis MA-4680 (protein)
chain: MSALFEPYSLRDLTIPNRVWMAPMCQYSAAPQGPAAGAPHDWHFAHYAARATGGTGLIVVEATAVSPEGRISPYDLGIWNDTQVEAFRRITRFLAAQGTVPAIQLAHGGRKASTDRPWKGGAPLAADEHGWQPLGPSPVAFDERHPVPTELSVAEIRQIVGQFADAARRALAAGFEIAEIHGAHGYLINEFLSPHSNRRTDEYGGSYENRVRFALEVVDAVREVWPAGKPLFFRVSATDWLDEGGWTADDTVRFAAELQAHGVDLLDVSTGGNASGVRIPTGPGYQVPFAARVKAGTSLPVAAVGLITDAEQAEKILANGEADAILLGRELLRNPSFARLAARELGGDVHVPAQYHRSV
B4: XCC0307: OYE protein from Xanthomonas campestris pv. campestris str. ATCC 33913 (protein)
chain: MSQLFTPINFGPLALANRIVIAPMCQYSAQDGRATDWHRIHLGTLSQSGAALLILEAAAVQPQGRISYADLGLYDDATEQALGEVLASVRRWSPMPIGIQLAHAGRKASTDLPWKGGEAIAPDHANGWQTVSASALPFRDGQPLPQALDAAGIDAVVEAFVTAAKRAERLELQLIELHAAHGYLMHQFLSPLSNQRSDAYGGSLDNRMRLTLRIFDAVRAAVSDQMAIGVRISATDWVDGGWDLPQSIALSKALDARGAHYIHVSSGGLDPRQQIPVQASYQIPFAEAIRAQVDTPVIGVGLITEPQQAEAILRDGQADAIALARGILYDPRWPWHAAAALGASVTPAPQYQRCEPREARGVFAS
B5: BH1481: OYE protein from Bacillus halodurans C-125 (protein)
chain: MEHKLFSSYVVKGVTLKNRIVMSPMCMYSSDQKDGKIRPFHISHYESRAAGQVGLIIVEATAVTPQGRISPYDLGIWSDDHISGLTETVERIHAHGAKAAIQLAHAGRKAELDGPIIAPSAISYDKMKTPDAMTEEQISETIEAFKLGALRAKKAGFDIIEIHGAHGYLINEFLSPLTNKRTDAYGGSLENRYRLLREIISEIQTVWDGPLFVRISAAEYAEGGNELSDFITLAKWMKKQGIDLIDCSSGAVVPAPIPVYPGYQVPLAEAIRHEANIATGAVGLITSGIQAEEILQNERADLIFVARELLRNPYWPREAALELGTTISGPSQYDRAWL
B6: CV3501: OYE protein from Chromobacterium violaceum ATCC 12472 (protein)
chain: MNADKLLTPLTMGAVALSNRVVMAPLTRLRNIEPGDVPGPLAKEYYRQRASAGLIVAEGTHISPTAKGYAGAPGIYSEEQVRAWSEVTGAVHQDGGKIALQLWHTGRISHRSLQPNGDAPVGPSAIQADSRTNIRAADGSLVREQCDTPRALEIEEIEDIIEDYRRAADNARRAGFDMVEIHGAHGYLIDQFLSPAANVRTDQYGGSVENRARFLLEVVDAVVAEWDADHVGIRISPLGIFNGVSNTDQLDMALYLAEQLAKRKLAFLHISEPDWAGGPTLDDGFRAELRQRYPGVIIGAGGYSAEKAETLLKKGFIDAAAFGRSYIANPDLVERLKQNAPLNPPKPDTFYGGGAEGYTDYPTL
B7: PA1146: aldehyde reductase (AR) from Pseudomonas aeruginosa (protein)
chain: MSDLHYWNYPTDILCGVGALEQLPRRCALAGARRPLLVTDPGMRALEPLRLVRECLERAGIDHDLFHELSSNPSLAEVQGGARRFEAGGHDALIALGGGSALDAAKGIALLSRDPHGLERFEWTQTLRSYPTLADYPPLGLPPLLALPTTAGTGSELGREAVLTDTQLGIKRVVGHRELLAACVFLDPRLTRGLPPALSAATGMDALTHHLEALFSPLYHPMSAGIALEGVRLVRQHLENAVRDGNDLAAREGMLVASASAAVAFQKGLGGVHALAHPLGARHHLHHGLLNAVLLPYVLLANRPAIEADAARLARYLELDEASFDGLLAWILELRARIGIPANLAALGLDGEDAQWVGEQALADLSSSATNALPLDARDYARIYRQAVAGTLA
B8: PP_3370: aldehyde reductase (AR) from Pseudomonas putida (protein)
chain: MQYVKLGSTGLDISRLCLGCMTFGEPDAGTHPWTLGEDASRPIIRHAVEQGINFFDTANSYSAGTSEIILGKLLREFTRREETVIATKVFFPANMWEGASRPNEQGLSRKAIMANIDASLSRLGTDYVDLYQIHRWDYHTPIEETMEALHDVVKAGKARYIGASSMYAWQFAKAQQVAANHGWSRFVSMQNYLNLIYREEEREMIPLCLDQGVGLMPWSPMARGRLTRPHGQQTQRTRTDVSGQSFYEKTEVEDGRVIDVVEQIASERGVPMAQVALAWVLGRAGVSAPIVGASKPAHLDDALGALSLQLSEDEVARLQAPYVPHAVTGFK
B9: PSPTO_2097: aldehyde reductase (AR) from Pseudomonas syringae (protein)
chain: MIEHLKLAGKVALVQGGSRGIGAAIVNRLAKEGAAVAFTYINSEVNALEIQDSINANGGRALAIRADSADEKAIRQAVQTTAETLGRLDILVNNAGVLAIAPLNEFSMQDFDKTLAINVRSVFIASQEAARHMEEGGRIINIGSTNAERMPFAGGATYAMSKSALIGLTKGMARDLGPQGITVNNVQPGPVDTDMNPAQGEFAESLKALMALPRYGKSEEIASFVAYLAGPEAGYITGASLTIDGGFSA
B10: BH2491: aldehyde reductase (AR) from Bacillus halodurans (protein)
chain: MLQGKTAIVTGASRGIGRATAMELARHGANVVVNYAGNKEKAEKVVAEIKELGVEAIAIQADVADSESVQAMVKETIDTFGAVDILVNNAGITRDNLFMRMKEEDWDAVIDTNLKGVFHCSKAVTRPMMKQRFGRIINVSSVVGAIGNAGQANYVAAKAGVIGLTKTLARELANRNITVNAVAPGFIETDMTGELPEDVKAQMLGQIPLARLGQPEEVAKAVRFLASDDASYLTGQTIHVNGGMVM
B11: CV_2177: aldehyde reductase (AR) from Chromobacterium violaceum (protein)
chain: MRRLEGKQALITGGTSGIGLETAKQFLAEGAKVAITGRSEAGLAQANEVLGGRALLLKSDAGSLDDQRALPAQLRSHGWSRLDAAYLNAGDVTHLPLADWSEADFDRVMAVNLKGPFFLLQALSPLLANPSSVILCGSVGARIGVPSSSAYAASKAGLLSLARTLSAEWLDRGIRVNGLSPGPTHTPAFGKLGMPEDELPALRDRIRKLVPLGRLGRPEELAKAAVFLASDESSYMLGSELLVDGGVGNV
B12: PA2918: aldehyde reductase (AR) from Pseudomonas aeruginosa (protein)
chain: MVDHSIKGKTVLITGGAKNLGGLIARDLAAHGAKAITIHYNSAASKADADATVAALQAAGAKAVALQGDLTSAAAMEKLFADAIAAVGKPDIAINTVGKVLKKPITEISETEYDEMSAVNSKSAFFFLREAGKHVNDNGKICTLVTSLLGAYTPYYAAYAGTKAPVEHFTRAASKEFGARGISVTAVGPGPMDTPFFYPAEGADAVDYLKNAAALSPFSKTGLTDIDDVVPFIRHLVSEGWWITGQTILINGGFSTK

Test: OYE hydrogenation activity screen, NADPH oxidation at 340 nm
Assay type: biochemical
Details: 1 mM substrate, 0.25 mM NADPH, 2.5 μg protein; cut-off 0.05 U/mg protein; ND = not detected
Protocol: 25 putative OYE genes (Table 1) were cloned based on the Pfam domain of the FMN oxidoreductase family PF00724. Purified OYEs were screened for hydrogenation activity against acrolein, 2-cyclohexn-1-one, cis,cis-muconic acid, trans,trans-muconic acid, and 2-hexendioic acid. Substrate specificity was measured spectrophotometrically in 96-well plates by following incubation for 20 min at room temperature in the anaerobic chamber. Buffers and reagents were also degassed and sparged with Ar. Reaction mixtures contained potassium phosphate (50 mM and pH 7.0), NaCl (10 mM), NADPH (0.25 mM), various substrates (1 mM) and protein (2.5 μg) in a final volume of 200 μL. Enzyme reactions were monitored by following the decrease in absorbance at 340 nm (ε340 nm=6,200/M·cm) as a measure of the conversion of the cofactor NADPH to NADP+.

Row | Molecule | Activity [U/mg protein] 2-cyclohexen-1-one | Activity [U/mg protein] acrolein
1 | B1 | 0.22 U/mg protein | 
2 | B2 |  | 0.08 U/mg protein
3 | B3 | 0.23 U/mg protein | 0.05 U/mg protein
4 | B4 | 0.15 U/mg protein | 
5 | B5 | 0.13 U/mg protein | 
6 | B6 | 0.07 U/mg protein | 

Test: AR reductase activity, NAD(P)H oxidation at 340 nm
Assay type: biochemical
Details: 10 mM, 1.8% DMSO; ND = no activity was detected
Protocol: Enzyme activity of purified ARs was measured spectrophotometrically in 96-well plates Reaction mixtures contained 100 mM HEPES buffer (pH 7.5), 0.4 mM NADH/NADPH, 10 mM adipaldehyde or butylaldehyde, and proteins (10 μg for adipaldehyde screen, 2 μg for butyraldehyde screen) in a final volume of 200 μL Reaction mixture for adipaldehyde screening contained 1.8% DMSO. Enzyme reactions were monitored by following the decrease in absorbance at 340 nm (ε340 nm=6,220/M·cm) due to oxidation of NAD(P)H to NAD(P)+.

Row | Molecule | Activity [U/mg protein] Adipaldehyde
7 | B7 | 0.696 ± 0.032 U/mg protein
8 | B8 | 0.437 ± 0.043 U/mg protein
9 | B9 | 1.046 ± 0.009 U/mg protein

Same assay, conditions: 10 mM; ND = no activity was detected

Row | Molecule | Activity [U/mg protein] Butyraldehyde
10 | B10 | 0.108 ± 0.026 U/mg protein
11 | B11 | 0.151 ± 0.054 U/mg protein
12 | B7 | 1.68 ± 0.144 U/mg protein
13 | B12 | 0.137 ± 0.03 U/mg protein
14 | B8 | 1.516 ± 1.382 U/mg protein
15 | B9 | 0.59 ± 0.597 U/mg protein

From patent publication US12371675B2, “Process and microorganism for synthesis of adipic acid from carboxylic acids” (THE GOVERNING COUNCIL OF THE UNIVERSITY OF TORONTO, priority 2015, dated 2025)
